System: T1, His-tagged recombinant PbGDPS_SSU (expressed in E. coli from pET15b)
T1 sequence: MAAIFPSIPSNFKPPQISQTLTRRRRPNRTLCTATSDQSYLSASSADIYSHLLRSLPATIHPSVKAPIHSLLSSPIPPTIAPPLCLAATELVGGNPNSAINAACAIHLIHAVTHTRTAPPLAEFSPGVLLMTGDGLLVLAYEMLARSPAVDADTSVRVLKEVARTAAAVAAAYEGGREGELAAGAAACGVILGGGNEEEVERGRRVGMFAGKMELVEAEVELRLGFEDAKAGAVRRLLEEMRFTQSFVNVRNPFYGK

How did the prenyltransferase activity turn out when “His-tagged recombinant PbGDPS_LSU (truncated, expressed in E. coli from pBAD202/D-TOPO)” was run?
Its prenyltransferase activity is “higher prenyltransferase activity than either PbGDPS_LSU or PbGDPS_SSU alone”.
